assay: yeast display, Sf9 membrane polyspecificity reagent, FACS + sequencing; frameworks hold sequencing errors
Summary of the method: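 Galactose induction of a Saccharomyces cerevisiae BJ5465 synthetic nanobody display library ran 36–48 hours. The cells were then stained for 1 hour at 4 °C with 10% biotinylated, detergent-solubilized Sf9 membrane reagent, pulled down on streptavidin microbeads and FACS-sorted into low and high (top ~1%) gates on expression and reagent-binding fluorescence. Labels for polyreactivity follow the gate of origin.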

Question: Which “polyreactivity (PSR sort gate)” value does the source give for “QVQLVESVGGLVQAGGSLRLSCAASGFTFYKYAMGWYRQAPGKEREFVAAIRTRSDSTYYADSVKGRFTISRDNAKNTVYLQMNSLKPEDTAVYYCAAQGYVEVGYSRYYYWGQGTQVTVSS” here?
Answer: Its value is “high polyreactivity”.

Question: Which “polyreactivity (PSR sort gate)” value does the source give for “QVQLVESVGGLVQAGGSLRLSCAASGIIFVGYAMGWYRPAPGKERELVSAIDLSGDSTYYADSVKGRFTISRDNAKNTVYLQMNSLKPEDTAVYYCAAGYWHRVNGDYDYWGQGTQVTVSS” here?
Answer: The value was “high polyreactivity”.

Question: For “QVQLVESVGGLVQAGGSLRLSCAASGITFGRNTMGWYRQAPGKERELVAAISWNGDSTYYADSVKGRFTISRDNAKNTVYLQMNSLKPEDTAVYYCNADDVFLYQTDGLGDYWGQGTQVTVSS”, which “polyreactivity (PSR sort gate)” value is on record?
Answer: The value was “low polyreactivity”.

Question: Which “polyreactivity (PSR sort gate)” value does the source give for “QVQLVESVGGLVQAGGSLRLSCAASGITFNEYAMGWYRQATGKARELVAAISRRGGSTYYADSVKGRFTISRDNAKNTVYLQMYSLKPEDTAVYYCAADPGTPRYQFLWYGYWGQGTQVTVSS” here?
Answer: Its value is “low polyreactivity”.

Question: For “QVQLVESVGGLVQAGGSLRLSCAASGITFRRYAMGWYRQAPGKERELVATIRNSGGGTYYADSVKGRFTISRDNAKNTVYLQMNSLKPEDTAVYYCAAELYFTYYYWGQGTQVTVSS”, which “polyreactivity (PSR sort gate)” value is on record?
Answer: Its value is “high polyreactivity”.

Question: For “QVQLVESVGGLVQAGGSLRLSCAASGLTFRKYAMGWYRQAPGKERELVAGISSGGSTYYADSVKGRFTISRDNAKNTVYLQMNSLKPEDTAVYYCAAKALRTMYYWGQGTQVTVSS”, which “polyreactivity (PSR sort gate)” value is on record?
Answer: Its value is “high polyreactivity”.

Question: Which “polyreactivity (PSR sort gate)” value does the source give for “QVQLVESVGGLVQAGGSLRLSCAASGRIFGSNAMGWYRPAPGKERELVAAISLSGTSTYYADSVKGRFTISRDNAKNTVYLQMNSLKPEDTAVYYCAAGLPGGTYFWGQGTQVTVSS” here?
Answer: The value was “high polyreactivity”.

Question: Which “polyreactivity (PSR sort gate)” value does the source give for “QVQLVESVGGLVQAGGSLRLSCAASGRIFGYNDMGWYRQEPGKERELVAVISTSGTITYYADSVKGRFTISRDNAKNTVYLQMNSLKPEDTAVYNCAAGSYSRYLYSLYFDFDYWGQGTQVTVSS” here?
Answer: Its value is “low polyreactivity”.

Question: With “QVQLVESVGGLVQAGGSLRLSCAASGRIFPYYAMGWYIQAPGKERELVATITWRGGITYYADSVKGRFTISRDNAKNTVYLQMNSLKPEDTSVYYCAVRKVYRSSFDYWGQGTQVTVSS” as the sequence, how does the “polyreactivity (PSR sort gate)” value read?
Answer: Its value is “high polyreactivity”.

Question: With “QVQLVESVGGLVQAGGSLRLSCAASGRIFRWNAMGWYRQAPGKEREFVAAISWSGGSTYYADSVKGRFTISRDNAKNTFYLQMNSLKPEDTAVYYCNKVGYYCVGTSQEFDYWGQGTQVTVSS” as the sequence, how does the “polyreactivity (PSR sort gate)” value read?
Answer: The value was “high polyreactivity”.

Question: Which “polyreactivity (PSR sort gate)” value does the source give for “QVQLVESVGGLVQAGGSLRLSCAASGRIFRYYAMGWSRQAPGKERELVAGISRGTSTYYADSVKGRFTISRDNAKNTVYLQMNSLKPEDTAVYYCAKGSIQYFRPYTFYTWGQGTQVTVSS” here?
Answer: The value was “high polyreactivity”.

Question: Which “polyreactivity (PSR sort gate)” value does the source give for “QVQLVESVGGLVQAGGSLRLSCAASGRTFAYTAMGWYRQARGKDREWLAAITWSGDSTYYADSVKGRFTISRDNAKNTVSLQKNSLKPEDTAVYYCAADYFGGPSYEFVYWGQGTQVTGSS” here?
Answer: Its value is “low polyreactivity”.

Question: With “QVQLVESVGGLVQAGGSLRLSCAASGRTFFYNAMGWYRQAPAKERELVAAIDWSGDSTYYADSVKGRFTISRDNAKNTVYLQMNSLKPEDTAVYYCAARRKNRRDYDYYYWGQGTQVTVSS” as the sequence, how does the “polyreactivity (PSR sort gate)” value read?
Answer: Its value is “high polyreactivity”.

Question: With “QVQLVESVGGLVQAGGSLRLSCAASGRTFRWNAMGWYRQAPGKERELVAAISYSGGSTYYADSVKGRFTISRDNAKNTVYLQMNSLKPEDTAVYYCAKAYSWYPIFRGLDSWGQGTQVTVSS” as the sequence, how does the “polyreactivity (PSR sort gate)” value read?
Answer: Its value is “high polyreactivity”.

Question: For “QVQLVESVGGLVQAGGSLRLSCAASGRTFRYNAMGWYRQAPGKERELVASITSGGSTNYADSVKGRFTISRDNAKNTVYLQMNSLKPEDTAVYYCAAEAYFWQYERDYWGQGTQVTLSS”, which “polyreactivity (PSR sort gate)” value is on record?
Answer: The value was “low polyreactivity”.

Question: With “QVQLVESVGGLVQAGGSLRLSCAASGRTFSTKAMGWYRQAPGKERELVAVIPSSGVRTYYADSVKGRFTISRDNAKNTVYLQKNSLKPEDTAVYYCAKPYGYRLDYWGQGTQVTVSS” as the sequence, how does the “polyreactivity (PSR sort gate)” value read?
Answer: Its value is “high polyreactivity”.

Question: For “QVQLVESVGGLVQAGGSLRLSCAASGRTFWWNAMGWYRQAPGKEREFVAAIRSTGGRTYYADSVKGRFTISRDNAKNTVYLQMNSLKPEDTAVYYCAAYTLDPYGFLYEYWGQGTQVTVSS”, which “polyreactivity (PSR sort gate)” value is on record?
Answer: The value was “high polyreactivity”.

Question: With “QVQLVESVGGLVQAGGSLRLSCAASGRTIHFNTMGWYRQAPGKERELVAAIRWGGNTYYADSVKGRFTISRDNAKNTVYLQMNSLKPEDTAVYYCAADRWYYFLMYYWGQGTQVTVSS” as the sequence, how does the “polyreactivity (PSR sort gate)” value read?
Answer: The value was “low polyreactivity”.

Question: With “QVQLVESVGGLVQAGGSLRLSCAASGRTLPWYAMGWYRQAPGKERELVAVIRWIGGRTYYADSVKGRFTISRDNAKNTVYLQMNSLKPEDTAVYYCAARPHYYYGWYYYWGQGTQVTVSS” as the sequence, how does the “polyreactivity (PSR sort gate)” value read?
Answer: The value was “high polyreactivity”.

Question: For “QVQLVESVGGLVQAGGSLRLSCAASGSIFKSYAMGWYRQAPGKERELVAAITYRGGSTYYADSVKGRFTISRDNAKNTVYLQMNSLKPEDTAVYYCAKDQHRYYQVWGDYWGQGTQVTVSS”, which “polyreactivity (PSR sort gate)” value is on record?
Answer: The value was “high polyreactivity”.

Question: For “QVQLVESVGGLVQAGGSLRLSCAASGSIFRNYAMGWYRQAPGKERELVAAITYRGGTTYYADSVKGRFTISRDNAKNTVYLQMNSLKPEDTAVYYCNTASVSRLYGEYDYWGQGTQVTVSS”, which “polyreactivity (PSR sort gate)” value is on record?
Answer: Its value is “high polyreactivity”.

Question: Which “polyreactivity (PSR sort gate)” value does the source give for “QVQLVESVGGLVQAGGSLRLSCAASGSIFSYYAMGWYRQAPGKERELVAAITSSGDSTYYADSVKGRFTISRDNAKNTVYLQINSLKPEDTAVYYCAAGILDLKLYFSSYDYWGQGTQVTVSS” here?
Answer: The value was “low polyreactivity”.

Question: For “QVQLVESVGGLVQAGGSLRLSCAASGSIFVPYAMGWYRQAPGKEREFVAAIYSGGGNTYYADSVKGRFTISRDNAKNTVYLQMNSLIPEDTAVYYCAAAYFYSSWSRYDYWGQGTQVTVSS”, which “polyreactivity (PSR sort gate)” value is on record?
Answer: Its value is “high polyreactivity”.

Question: For “QVQLVESVGGLVQAGGSLRLSCAASGSILRRYAMGWYRRAPWKERELVAAIDGGGGTTYYADSVKGRFTISRDYAKKTVYLQMNSLKPEDNAVYYCAADASWELIAWAHYDYWGQGTQVSVSS”, which “polyreactivity (PSR sort gate)” value is on record?
Answer: Its value is “low polyreactivity”.

Question: Which “polyreactivity (PSR sort gate)” value does the source give for “QVQLVESVGGLVQAGGSLRLSCAASGSIRYYAMGWYRQAPGKERELVAAISSRGTNTYYADSVKGRFTISRDNAKNTVYLQMNSLKPEDTAVYYCNAVVGLGYNYWGQGTQVTVSS” here?
Answer: The value was “high polyreactivity”.

Question: For “QVQLVESVGGLVQAGGSLRLSCAASGSTCQRYAIGWYRQAPGKERELVAAISDGGSTNYADSVKGRFTISRDNAKNTVYLQMNSLKPEDTAVSYCAAKYLSRYDYWGQGTQVTVSS”, which “polyreactivity (PSR sort gate)” value is on record?
Answer: The value was “low polyreactivity”.

Question: For “QVQLVESVGGLVQAGGSLRLSCAASGSTFDDNAMGWYRQAPGKERELVASITYRGGSTYYADSVKGRFTISRDNAKNTVYLQMNSLKPEDTAVYYCAKGHYFKYDYWGQGTQVTVSS”, which “polyreactivity (PSR sort gate)” value is on record?
Answer: Its value is “low polyreactivity”.

Question: With “QVQLVESVGGLVQAGGSLRLSCAASGSTFGHYAMGWYRQAPGKERELVSAISTSGGRTYYADSVKGRFTISRDNAKNTVYLQMNSLKPEDTAVYYCATRRYGVDKFDYWGQGTQVTVSS” as the sequence, how does the “polyreactivity (PSR sort gate)” value read?
Answer: Its value is “high polyreactivity”.

Question: For “QVQLVESVGGLVQAGGSLRLSCAASGSTFLVYAMGWYRQAPGKERELVAAITQIDGSTYYADSVKGRFTISRDNAKNTVYLQMNSLKPEDTAVYYCAARYFWTYEYDYWGQGTQVTVSS”, which “polyreactivity (PSR sort gate)” value is on record?
Answer: Its value is “low polyreactivity”.

Question: With “QVQLVESVGGLVQAGGSLRLSCAASGSTFVDYAMGWYRQAPGKERELVAAINSDGGGTYYADSVKGRFTISRDNAKNTVYLQMNSLKPEDTAVYYCNVEYVDYYAQRYGYDYWGQGTQVTLSS” as the sequence, how does the “polyreactivity (PSR sort gate)” value read?
Answer: The value was “low polyreactivity”.
